Results as given in US20190031771A1 (University of Pennsylvania, published 2019).

T1: human ADAMTS13 (human, UniProt Q76LX8 75-1427)
T1 sequence (looked up): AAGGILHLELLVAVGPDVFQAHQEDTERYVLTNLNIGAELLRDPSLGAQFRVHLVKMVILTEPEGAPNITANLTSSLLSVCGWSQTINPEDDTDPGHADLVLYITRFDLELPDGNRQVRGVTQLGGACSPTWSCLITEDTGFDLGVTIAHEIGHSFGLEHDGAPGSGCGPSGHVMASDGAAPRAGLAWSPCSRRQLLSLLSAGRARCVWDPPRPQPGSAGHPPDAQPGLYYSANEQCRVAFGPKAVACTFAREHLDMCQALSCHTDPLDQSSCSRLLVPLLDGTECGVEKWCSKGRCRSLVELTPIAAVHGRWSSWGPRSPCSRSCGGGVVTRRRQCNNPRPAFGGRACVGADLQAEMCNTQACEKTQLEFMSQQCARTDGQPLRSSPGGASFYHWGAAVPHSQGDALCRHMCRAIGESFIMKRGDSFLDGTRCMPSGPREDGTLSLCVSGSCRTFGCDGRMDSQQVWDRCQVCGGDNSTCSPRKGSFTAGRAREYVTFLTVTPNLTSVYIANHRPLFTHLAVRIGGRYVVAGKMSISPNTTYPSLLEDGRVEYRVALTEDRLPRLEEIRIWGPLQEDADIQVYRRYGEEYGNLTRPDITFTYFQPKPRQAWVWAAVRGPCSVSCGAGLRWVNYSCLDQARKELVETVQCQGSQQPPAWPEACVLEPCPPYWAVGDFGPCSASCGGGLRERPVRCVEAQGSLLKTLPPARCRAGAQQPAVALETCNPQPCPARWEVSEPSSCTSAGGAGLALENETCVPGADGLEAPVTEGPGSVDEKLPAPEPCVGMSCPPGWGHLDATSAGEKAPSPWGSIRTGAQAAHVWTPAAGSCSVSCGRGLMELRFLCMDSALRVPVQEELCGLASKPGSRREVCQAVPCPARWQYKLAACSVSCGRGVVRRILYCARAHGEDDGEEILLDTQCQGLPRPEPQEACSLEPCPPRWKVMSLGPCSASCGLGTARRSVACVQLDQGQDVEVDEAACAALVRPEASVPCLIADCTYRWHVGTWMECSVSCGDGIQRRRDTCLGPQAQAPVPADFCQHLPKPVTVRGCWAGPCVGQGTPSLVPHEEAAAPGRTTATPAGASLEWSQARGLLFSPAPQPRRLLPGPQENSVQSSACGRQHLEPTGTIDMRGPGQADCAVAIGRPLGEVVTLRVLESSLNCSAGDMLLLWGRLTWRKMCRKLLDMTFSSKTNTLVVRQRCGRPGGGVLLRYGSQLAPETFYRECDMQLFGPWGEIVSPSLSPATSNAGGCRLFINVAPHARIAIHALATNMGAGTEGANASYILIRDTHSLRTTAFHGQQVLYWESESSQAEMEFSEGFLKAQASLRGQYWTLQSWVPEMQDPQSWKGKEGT

B1: scFv 1-428 (scFv, V domains shown)
VH: EVQLVQSGAEVKKPGSSVKVSCKASGSNFSSHTINWVRQAPGHGLEWMGKIIPVLDISKDAETFLGRVVITADKSTSTAYMELSSLRSEDTAIYYCAMDSVYGNFDFWGQGTLVTVSS
VL: ELELTQPPSVSVSPGQTARITCSGDALPKQYAYWYQQKPGQAPVLVIYKDSERPSGIPERFSGSSSGTTVTLTISGVQAEDEADYYCQSADSSGTYEVFGGGTKLTVL
B2: scFv 1-431 (scFv, V domains shown)
VH: QVQLVQSGAEVKKFGSSVKVSCKASGGTFSSYTMSWVRQAPGQGLEWMGSFVPILERANYAQGFQGRVTFTADKSTSTAYMELGSLRSEDTAVYYCARDLGDFGDSWGQGTLVTVSS
VL: ELELTQPPSVSVSPGQTARITCSGDALPKQYAYWYQQKPGQAPVLVIYKDSERPSGIPERFSGSSSGTTVTLTISGVQAEDEADYYCQSADSSGTYVFGGGTKLTVL
B3: scFv 1-420 (scFv, V domains shown)
VH: QVQLVQSGAEVKKPGSSVKVSCKASGGAFTMYTINWVRQAPGRGLEWMGRIIPILGITDYAQKFQGRGTITADKSTSTAYLELSGLTSEDTAVYYCAREFSGGNYFDFWGQGTLVTVSS
VL: ELELTQPPSVSISPGKTAKIFCGGNSIGRKSVHWYQQKPGQAPVLVVYDDSDRPSGIPERFSGSNSGNTATLTISRVEAGDEADYYCQVWDSSSDYVVFGGGTKLTVL

Molecular target: T1, human ADAMTS13
Assay: cell-based or functional assay

Binder | % ADAMTS13 activity in presence of scFv inhibitor (no rabbit IgG) [%]
B1 | 7
B2 | 19
B3 | 0

Molecular target: T2, hemagglutinin ectodomain of influenza virus H1/PR/8/34 (influenza virus H1/PR/8/34, UniProt P03452 18-528)
T2 construct: extracellular domain; also called HA H1/PR/8/34
Assay: immunoassay or flow cytometry

T2 sequence (P03452 18-528): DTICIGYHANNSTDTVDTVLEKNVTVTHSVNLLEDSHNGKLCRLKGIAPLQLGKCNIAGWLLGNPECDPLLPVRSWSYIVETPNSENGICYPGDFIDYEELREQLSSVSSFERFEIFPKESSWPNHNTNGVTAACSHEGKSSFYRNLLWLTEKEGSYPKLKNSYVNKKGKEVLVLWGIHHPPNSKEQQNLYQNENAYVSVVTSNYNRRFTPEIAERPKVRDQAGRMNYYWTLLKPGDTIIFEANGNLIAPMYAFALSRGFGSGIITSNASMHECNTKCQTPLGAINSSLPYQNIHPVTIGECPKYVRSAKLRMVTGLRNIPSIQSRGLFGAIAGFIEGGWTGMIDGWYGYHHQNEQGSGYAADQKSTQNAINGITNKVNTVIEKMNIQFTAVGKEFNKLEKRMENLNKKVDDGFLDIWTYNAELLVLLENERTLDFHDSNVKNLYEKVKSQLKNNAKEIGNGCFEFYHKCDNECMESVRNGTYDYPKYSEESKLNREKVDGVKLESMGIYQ

Binder | binding result
B1 | no binding
B2 | no binding
B3 | no binding
